The record followed here is paper PMC11860134, “PET Imaging of CD206 Macrophages in Bleomycin-Induced Lung Injury Mouse Model” (Pharmaceutics, 2025).

The subject of data set [1] is collagen I and III fibers. Description: Picro Sirius Red (PSR) staining of lung sections, ImageJ quantification. It counts as in vivo, mouse. To be noted: lungs of BLM cohort given the tracer. The method, then: Following PET/CT imaging, lungs from all cohorts (bleomycin-induced lung injury model administered with linear or cyclic [^68Ga]Ga-RP832c, healthy mice administered with linear or cyclic [^68Ga]Ga-RP832c, and mice not administered bleomycin) were collected and fixed in 10% formalin. After 48 h of fixation, the lungs were transferred to 70% ethanol and after an additional 24 h, samples were sent for preparation of tissue sections. Tissue sections were prepared by the UAB Pathology Core Research Laboratory, Birmingham, AL, USA. Subsequently, tissue sections were stained with CD206 (Mouse MMR/CD206 Antibody (20 µg/mL, Cat: AF2535, R&D, Minneapolis, MN, USA). The secondary antibody was the Rabbit anti-goat IgG (H+L) HRP (1:2000 dilution, Cat no: 81-1620, Invitrogen, Waltham MA, USA). Picro Sirius Red Staining was conducted using a commercial kit (Picro Sirius Red Stain Kit, ab150681, Abcam, Waltham, MA, USA). Collagen was stained in red while muscle fibers and cytoplasm were stained in yellow.
Picro Sirius Red staining was carried out to detect collagens due to pulmonary fibrosis. The kit is intended for use in the histological visualization of collagen I and III fibers. Picro Sirius Red solution was applied to completely cover the tissue section and then the sample was incubated for 60 min. Slides were rinsed twice in acetic acid solution (0.5%). Slides were rinsed in absolute alcohol and dehydrated in 2 changes in absolute alcohol. The mounting media used was Permount™ Mounting Medium, Pittsburgh, PA, USA. CD206-, PSR-, and H&E-stained samples were imaged using EVOS™ M7000 Imaging System (Invitrogen, Waltham, MA, USA). For IHC semi-quantification, all slides were scored under a light microscope according to the degree of staining (0 points negative for staining, 1 point light yellow, 2 points light brown, and 3 points dark brown) and the range of positivity (1 points 0 to 25%, 2 points 26 to 50%, 3 points 51 to 75%, and 4 points 76 to 100%), and the final scores were summed for analysis.

Data set [2] has as its target T1, murine CD206 (Recombinant mouse MMR/CD206 protein) (Mus musculus, UniProt Q61830).
T1 construct: purchased R&D Systems
T1 sequence (Q61830 19-1388 limits assumed): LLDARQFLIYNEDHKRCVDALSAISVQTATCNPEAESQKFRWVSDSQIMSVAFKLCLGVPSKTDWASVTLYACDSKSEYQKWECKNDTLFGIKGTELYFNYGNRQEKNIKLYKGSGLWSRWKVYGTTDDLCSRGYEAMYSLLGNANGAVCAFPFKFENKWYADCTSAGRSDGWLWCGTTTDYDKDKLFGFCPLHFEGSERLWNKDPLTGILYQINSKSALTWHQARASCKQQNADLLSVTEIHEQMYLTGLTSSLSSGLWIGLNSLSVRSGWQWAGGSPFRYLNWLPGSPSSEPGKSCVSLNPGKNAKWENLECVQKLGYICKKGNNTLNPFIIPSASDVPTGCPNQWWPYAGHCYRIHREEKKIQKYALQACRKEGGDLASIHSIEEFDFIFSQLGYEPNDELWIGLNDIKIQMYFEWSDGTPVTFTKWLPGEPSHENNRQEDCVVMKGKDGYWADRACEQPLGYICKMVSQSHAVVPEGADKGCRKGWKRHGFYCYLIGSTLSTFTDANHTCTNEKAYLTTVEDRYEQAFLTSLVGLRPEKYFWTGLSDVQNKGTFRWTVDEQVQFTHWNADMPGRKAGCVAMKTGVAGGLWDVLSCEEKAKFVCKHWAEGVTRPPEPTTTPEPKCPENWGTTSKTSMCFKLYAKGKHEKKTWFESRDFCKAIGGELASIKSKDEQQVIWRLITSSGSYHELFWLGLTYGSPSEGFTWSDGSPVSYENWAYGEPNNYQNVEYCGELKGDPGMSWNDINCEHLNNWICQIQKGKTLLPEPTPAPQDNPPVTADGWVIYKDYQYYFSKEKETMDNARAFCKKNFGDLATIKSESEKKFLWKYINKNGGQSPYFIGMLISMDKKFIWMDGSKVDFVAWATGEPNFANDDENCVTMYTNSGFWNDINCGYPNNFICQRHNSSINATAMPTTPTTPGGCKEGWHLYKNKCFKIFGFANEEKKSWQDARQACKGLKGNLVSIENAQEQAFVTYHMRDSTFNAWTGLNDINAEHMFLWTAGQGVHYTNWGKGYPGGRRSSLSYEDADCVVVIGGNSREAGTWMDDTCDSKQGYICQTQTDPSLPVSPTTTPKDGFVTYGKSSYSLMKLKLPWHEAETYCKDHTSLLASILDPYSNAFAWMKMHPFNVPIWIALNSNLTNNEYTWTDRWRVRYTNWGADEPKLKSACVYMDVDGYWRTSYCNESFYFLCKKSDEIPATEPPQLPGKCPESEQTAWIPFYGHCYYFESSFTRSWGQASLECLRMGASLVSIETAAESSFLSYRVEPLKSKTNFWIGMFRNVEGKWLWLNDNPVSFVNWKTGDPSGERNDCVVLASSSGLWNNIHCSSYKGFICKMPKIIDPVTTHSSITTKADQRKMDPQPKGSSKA
The data set is described as follows: CD206 plate binding assay. To be noted: 1 µg CD206 per well, 2 µg (0.1 µCi) tracer, n = 10. The method, then:
The affinity of linear and cyclic RP832c to murine CD206 (Recombinant mouse MMR/CD206 protein, R&D Systems, Minneapolis, MN, USA) protein was tested via plate binding study using blocking and non-blocking groups. 48 h before the experiment 1 µg of CD206 (in 0.1 mL 15 mM Na2CO3, 35 mM NaHCO3) was added to each well of 96-well flat bottom plate. The plate was kept at 4 °C for 48 h. On the day of the study, 5 µg (0.1 mL aqueous solution) of linear or cyclic RP832c was added to each well (n = 10) of each blocking group and was incubated at 37 °C for an hour. Then, 2 µg (0.1 µCi) of [^68Ga]RP832c was added to each well (n = 10 for each group) of both blocking and non-blocking groups. Both groups were incubated at 37 °C for an hour. Wells were rinsed with PBS (pH = 7) three times. Three wells were used as standards. Each well of the blocking and non-blocking groups and the standards were measured via the HIDEX gamma counter (Lablogic, Clair-Mel City, FL, USA). Data were decay corrected, and binding (%) values were calculated according to standards.

Consider RWKFGGFKWR [cyclic [^68Ga]Ga-RP832c], for which the results for the “area % values for PSR staining (ImageJ)” value in data set [1] (1 week post bleomycin instillation), in data set [1] (2 weeks post bleomycin instillation) and in data set [1] (3 weeks post bleomycin instillation) were 0.86 ± 0.44%, 1.28 ± 1.06% and 1.36 ± 0.75%, respectively. Further, the “CD206 plate binding %” value in data set [2] (blocking: 5 µg linear or cyclic RP832c, 37 °C 1 h before tracer) stood at 10.36 ± 0.44%; in data set [2] (non-blocking, 37 °C 1 h, gamma counter), 37.60 ± 1.40%.
